According to PMC10778600, “Conserved Residues Lys64 and Glu78 at the Subunit Surface of Tau Glutathione Transferase in Rice Affect Structure and Enzymatic Properties” (International Journal of Molecular Sciences, 2023):

Key:
[1] = target: OsGSTU17 mutant K64A (Oryza sativa); test: native gel or EMSA; native PAGE of the purified proteins, gel pre-run 30-60 min, 100-200 V, 0-4 °C; BSA and ovalbumin as markers; molecular weight compared with SDS-PAGE of the denatured proteins
[2] = target: wild-type OsGSTU17 (rice tau class glutathione transferase) (Oryza sativa); test: as above
[3] = target: OsGSTU17 mutant E78A (Oryza sativa); test: as above
[4] = substrate: O=[N+]([O-])c1ccc(Cl)c2nonc12; test: steady-state kinetics, non-linear regression; assay type: biochemical, Oryza sativa; details: GSH fixed at 1.0 mM; NBD-Cl 0.2 to 1.0 mM
Excerpt: steady-state kinetics, non-linear regression on OsGSTU17

OsGSTU17 mutant K64A (enzyme)
stoichiometry N [1]: 2

wild-type OsGSTU17 (rice tau class glutathione transferase) (enzyme)
stoichiometry N [2]: 2

OsGSTU17 mutant E78A (enzyme)
stoichiometry N [3]: 2

B1: OsGSTU17 (Oryza sativa Japonica Group; K64A) (protein)
chain: MAADKGVKVFGMWASPMAIRVEWALRLKGVDYEYVDEDLANKSEALLRHNPVTKKVPVLVHDGAPLAESTVIVEYIDEAWKHGYPIMPSDPFDRAQARFWARFAEEKCNAALYPIFMTTGEEQRKLVHEAQQCLKTLETALEGKKFFGGDAFGYLDIVTGWFAYWLPVIEEACGVEVVTDEALPLMKAWFDRVLAVDAVKAVLPPRDKLVALNKARREQILSA
Km [4]: 507 ± 25 µM | Vmax [4]: 0.287 µM/min/mg | kcat [4]: 0.217 s⁻¹ | kcat/Km [4]: 428 M⁻¹ s⁻¹
